Experimental data as given in the nanobody polyreactivity screen of Harvey et al. (2022).

Assay: yeast display, Sf9 membrane polyspecificity reagent, FACS + sequencing; frameworks hold sequencing errors
Outline: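 Galactose-induced (36–48 hours) yeast carrying a synthetic nanobody display library were exposed to 10% biotinylated, detergent-solubilized Sf9 membrane reagent at 4 °C for 1 hour. FACS followed streptavidin microbead enrichment, using low and high (top ~1%) gates for expression (anti-HA) and reagent binding (streptavidin). Colony PCR, MiSeq 2 × 250 sequencing and CDR-length filtering followed. Labels for polyreactivity reflect the gate of origin.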

In the case of “QVQLVESGGGLVQAGGSLRLSCAASGSIFKSYAMGWYRQAPGKERELVAVISDSGSTYYADSVKGRFTISRDNAKNTVYLQMNSLKPEDTAVYYCRGRGRRNEYWGQGTQVTVSS”, the “polyreactivity (PSR sort gate)” value is reported as “high polyreactivity”.
In the case of “QVQLVESGGGLVQAGGSLRLSCAASGLTFSRNAMGWYRQAPGKEWELVAAISGSGGSTYYADSVKGRFTISRDNAKYTVYLQMNSLKPEDTAVYYCAKVSRSKQKFDYWGQGTQVTVSS”, the “polyreactivity (PSR sort gate)” value is reported as “high polyreactivity”.
In the case of “QVQLVESGGGLVQAGGSLRLSCPASGFTFHHYVMGWYRPAPGKEMEFVASIRWRGGSTYYADSVKGRFTISRDNAKTTVYLQMNSLKPEDTAVYYSNADPYVYSSWQYGYWGQGTQVTVSS”, the “polyreactivity (PSR sort gate)” value is reported as “high polyreactivity”.
With “QVQLVESGGGLVQAGGSLRLSCAASGFTFRYYAMGWYRQAPGKERELVAAISWSGGSTYYADSVKGRFTISRDNAKNTVYLQMNSLKPEDTAVYYCNAYAYYSHGVTTTYDYWGQGTQVTVSS” the “polyreactivity (PSR sort gate)” value was “high polyreactivity”.
With “QVQLVESGGGLVQAGGSLRLSCAASGRTFRINAMGWYRQAPGKEREFVASIRYSGGSTYYADSVKGRFTISRDNAKNTVYLQMNSLKPEDTAVYYCAAVRSYYRGYDYWGQGTQVTVSS” the “polyreactivity (PSR sort gate)” value was “high polyreactivity”.
For “QVQLVESGGGLVQAGGSLRLSCAASGRTFNWYAMGWYRQAPGKERELVAAITQSGGITSYADSVKGRFTISRDNAKNTVYLQMNSLKPEDTAVYYCATTSRYSRSHYDWYDYWGQGTQVTVSS”, the “polyreactivity (PSR sort gate)” value was “low polyreactivity”.
With “QVQHVESGGGLVQAGGSLRLSCAASGFTFYIYVMGWYRQAPGKERELVAAITWSGGRTYYADSVKGRFTISRDNAKNTVYLQMNSLKPEDTAVYYCAASYPGLSYHKYEYWGQGTQVTVSS” the “polyreactivity (PSR sort gate)” value was “high polyreactivity”.
For “QVQLVESGGGLVQAGGSHRLSCAASGYTFARYAMGWYRQAPGKERELVAAISRSGGGTYYADSVKGRFTISRDNAKNTVYLQMNSLKPEDTAVYYCATDRVQGLGRFDYWGQGTQVTVSS”, the “polyreactivity (PSR sort gate)” value was “high polyreactivity”.
In the case of “HVQLVESGGGLVQAGGSLRLSCAASGRIFWRYAMGWYRQAPGKEREFVADITYSGGSTYYADSVKGRFTISRDNAKNTVYLQMNSLKPEDTAVYYCAAGWVRPWATYKLDYWGQGTQVTVSS”, the “polyreactivity (PSR sort gate)” value is reported as “high polyreactivity”.
With “QVQLVESGGGLVQAGGSLRLSCAASGRTFAKYAMGWYRQAPGKERELVAAITRGDTTNYADSVKGRFTISRDNAKNTVYLQMNSLKPEDTGVYYCAATPDPPHTYEYWGQGTQVTVSS” the “polyreactivity (PSR sort gate)” value was “low polyreactivity”.
With “QVQLVESGGGLVQGGGSLRLSCDASGCNFRKNAMGWYRQAPGKERDLVAAISWDGDNTYADSVKGRFTISRDNAMNNVYLQLYSLKPVYTAVSYCAAETFTYYDYWGQGTQVNVSS” the “polyreactivity (PSR sort gate)” value was “high polyreactivity”.
With “QVQLVESGGGLVQAGGSLRLSCAASGSTFSRNAMGWYRQAPGKERELVAAITRSGGSTYYADSVKGRFTISRDNAKNTVYLQMNSLKPEDTAVYYCAVAVPRGVYLYDYWGQGTQVTVSS” the “polyreactivity (PSR sort gate)” value was “low polyreactivity”.
In the case of “QVQLVESGGGLVQAGGSLRLSCAASGRIFLLNPMGWYRKAPGKERELVARISSGRTYYADSVKGRFTISRDNAKNTVYLQMNILKPEDTAVYYCNATVSSSKYRYFYVNPYDYWGQGTQVTVSS”, the “polyreactivity (PSR sort gate)” value is reported as “low polyreactivity”.
In the case of “QVQLVESGGGLVQAGGSLRLSCAASGRISFRILWDGIDRRLGKKGSWLPLLTNTGSTNYADSVKGRFTISRDNAKNTVYLQIHSLKPEDTAVYDCNADPTGGSSYPAYFEYDYWGQGTQVTVSS”, the “polyreactivity (PSR sort gate)” value is reported as “low polyreactivity”.
With “QVQLVESGGGLVQAGGSLRLSCAASGLTFDYYAMGWYRQAPGKERELVAAISSSGGSTYYADSVKGRFTISRDNAKNTVYLQMNSLKPEDTAVYYCNAGGRRRIFAHSSTGDYWGQGTQVTVSS” the “polyreactivity (PSR sort gate)” value was “high polyreactivity”.
With “QDQLVESGGGLVQAGGSLRLSCAASGSIFGVYAMGWNRQAPGKERELVAAITRGGRTYYADSVKGRFTISRDNAKNTVYLQMNCLKPEDTAVYYCAALPLRERYGYWGQGTQVTVSS” the “polyreactivity (PSR sort gate)” value was “high polyreactivity”.
For “QVQLVESGGGLVKAGGSLRLSCAASGSTFSRYAKGWYRQAPGKEREFVAAISKSGGGTYYADSVKGRFTISRDNAKNTVYLQMNSMKPEETAVYYCARRVRYKHYDYWGQGSQVTVSS”, the “polyreactivity (PSR sort gate)” value was “high polyreactivity”.
For “QVQLVESGGGLVQAGRSLRLSCAASGSTFWPNAMGWYRPAPGKERELVAAITSGGRTKYADSVKGRFTISRDNAKNTVYLQMNSLKPEDTAFYYCAKRKGDRGAWIHAYGWEDVDYWGQGTQVTVSS”, the “polyreactivity (PSR sort gate)” value was “low polyreactivity”.
With “QFQLVESGGGLVQAGASLRLSSAASGSTFVFYAMGWYRQAPGKERELVATISTGVSTYADSVKGRFTISRDNAKNTVYLQMNSLKPEDTAVYYCAADSLFGHYDYSGQGTQVTVSS” the “polyreactivity (PSR sort gate)” value was “low polyreactivity”.
In the case of “QVQLVESGGGLVRAGGSLRLSCAASGFVYYVMGWYRQAPGKERELVAAISKGGGRTYYADSVKGRFTISRDNAKNTVYLQMNSLKPEDTAVYYCAAAFWRITRYGMDYWGQGTQVTVSS”, the “polyreactivity (PSR sort gate)” value is reported as “high polyreactivity”.
In the case of “QVQLVESGGGLVQAGGSLRLSCAASGSTFQYNAMGWYRQAPGKERELVAVITRRGGRTYYADSVKGRFTISRDNAKNTVYLQMNSLKPEDTAVYYCAAYYDYTHRFYYWGQGTQVTVSS”, the “polyreactivity (PSR sort gate)” value is reported as “high polyreactivity”.
With “QVKHVESGGGLVQAGGSLRLSCAASGFTFSYYAMGWFRQAPGKERELVAAITSGGSTYYADYVKGRFTISRDNAKNTVYLQMNSLKPEDTAVYYCNADGWYYPTDDYWGHGTQVTVSS” the “polyreactivity (PSR sort gate)” value was “low polyreactivity”.
With “QVQLVESGGGLVQAGGSLRLSCAASGFTFDDNAMGWYRQAPGKERELVATISYSDGNTYYADSVKGRFTISRDNAKNTVYLQMNSLIPEDTAVYYCAADDWAVYYIGLDYDYWGQGTQVTVSS” the “polyreactivity (PSR sort gate)” value was “low polyreactivity”.
With “QVQLVESGGGLVQAGGSLRLSCAASGFTFTRNAMGWYRQAPGKEMELVAGITFIGTSTYYADSVKGRFTISRDNAKNTVYLQMNSLKPEDTAVYYCAKEYDDYVYGYHYTRYGYWGQGTQVTVSS” the “polyreactivity (PSR sort gate)” value was “low polyreactivity”.
With “QVQLVESGGGLVQAGGSLRLSCAASGSIFSDYAIGWYSTAPGKERELVASISWTGGGTYYADSVKGRFTISRDNAKNTVYLQMNSVKPEDTGFYYCAAEYSYIMDFWGQGTQVTVSS” the “polyreactivity (PSR sort gate)” value was “high polyreactivity”.
For “QVQLVESGGGLVQAGGSLRIRCAASGLIFGFYAMGWYRQAPGKERELVAAINSGGITYYADSVKGRFTISRDNAKNTVYLQMNSLKPEDTAVYYCNKDSHISTAYDYWGQGTQVTVSS”, the “polyreactivity (PSR sort gate)” value was “low polyreactivity”.
In the case of “QVQLVESGGGLVQAGGSLRLSCAASGSIYYWYASGWYIHAPGKERELVAAITSGGSTNYADSVKGRFTISRDNAKNTVYLQMNSLKPEDTAVYYCAASSVLTNHDYWGQGTQVTVSS”, the “polyreactivity (PSR sort gate)” value is reported as “low polyreactivity”.
For “QVQLVESGGGLVQAGGSLRLSCAASGSTFDAYAMGWSRQAPGKERELVAAMTNAGSTNYADSVKGRFTISRDNAKNTVYLQMNSLKPEDTAVYYCATDWYHRYLDGRYDYLGQGTQVTVSS”, the “polyreactivity (PSR sort gate)” value was “low polyreactivity”.
In the case of “QVQLVESGGGLVQAGGSLRLSCAASGNTFHSYVMGWYRQAPGKERELVAAITSGGSTYYADSVKGRFTISRDNAKNTVYLQMNSLKPEDTAVYYCAVDAWTGESYWEHYYWGQGTQVTVSS”, the “polyreactivity (PSR sort gate)” value is reported as “low polyreactivity”.
For “QVQLVESGGGLVQAGGSLRLSCAASGSTFLINAMGWYRQAPGKERELVAAITGRGGSTYYADSVKGRFTISRDNAKNTVYLQMNSLKPEDTAVYYCNAERLGTGYRYDYWGQGTQVTVSS”, the “polyreactivity (PSR sort gate)” value was “high polyreactivity”.
For “QVQLQEIVGGLVQAGGSLRLSCAASGNNFDADIMGLYRQAPGKERELVASVTDGGSTNYADSVKGRFTISRDNAKNSVYLQMNILKPEDTAVYYCAAIVYPDILTYFDYDYDYFYWGQGTQVTVGS”, the “polyreactivity (PSR sort gate)” value was “low polyreactivity”.
In the case of “QVQLVESGGGLVQAGGSLRLICAASGSTFKYNAMGWYRQAPGKERELVAAITYSGSSTYYADSVKGRFTISRDNAKNTVYLQMNSLKPEDTAVYYCAAGDLAKYRSYSYYYWGQGTQVTLSS”, the “polyreactivity (PSR sort gate)” value is reported as “high polyreactivity”.
For “QVQLEESGGGLVQAGGSLRLSCAASGSIFDYYAMGWYRKATGKERELVAAISWSGGSTYYADSVKGRFTISRDNAKNTVYLKMIILKPEDTAVYYCAADSSGIGYSSLYFNWGQGSQVTVSS”, the “polyreactivity (PSR sort gate)” value was “low polyreactivity”.
In the case of “QVQLVESGGGLVQAGGSLRLSCAASGSIFYSYAMGWYRQAPGKERELVAAITDSGDDTYYADSVKGRFTISRDNAKNTVYLQMNSLKPEDSAVYYCAAEQIYYTSDSSYFVTYDDWGQGTQVSVSS”, the “polyreactivity (PSR sort gate)” value is reported as “high polyreactivity”.
In the case of “QVQLVESGGGLVQAGGSLRLSCAPSGRTFTAYAMGWYRQAPGKERELVAAITSGGSTYYADSVKGRFTISRDNAKNTVYLKRKSLKPEDTAVYYCATDLYSFYWPEYEYWGQGTQVTLSS”, the “polyreactivity (PSR sort gate)” value is reported as “low polyreactivity”.
With “QVQLVESGGGLVQAGGSLRLSCAASGNILASNAMGWYRQAPGKERELVAAITISGDTTYYADSVKGRFTISRDNAKNTVYLQMNSLKPEDTAVYYCNAVSFIVNGGYDGDYWGQGTQVTVSS” the “polyreactivity (PSR sort gate)” value was “low polyreactivity”.
For “QVQLVESGGGLVQAGGSLRLSCAASGSTFQRYAMGGSRQAPGKERELVAAITAGGSTYYADSVKGRFTISRDNAKNTVYLQLNSLKPEDTAVYYCNAAWFYRYGYWGQGTQVTVSS”, the “polyreactivity (PSR sort gate)” value was “high polyreactivity”.
In the case of “QVQLLESGGGLVQAGGSLRLSCAASGIIFLDNAMGWYRQAPGKERELVADITSSGGSTYYADSVKGRFTISRDNAKNTVSLQMNSLKPEDTAVYYCAATRPSYNDAESDYWGQGTQVTVSS”, the “polyreactivity (PSR sort gate)” value is reported as “low polyreactivity”.
For “QVQLVESGGGLVQAGGSLRLSCAASGLIFNNNAMGWYRQAPGKERELVAAISYRGGSTYYADSVKGRFTISRDNAKNTVYLQMNSLKPEDTAVYYCAARKISKYDYWGQGTQVTVSS”, the “polyreactivity (PSR sort gate)” value was “high polyreactivity”.
With “QVQLVESGGGLVQAGGSLRLSCAASGSIFGLYAMGWYRQAPGKERELVAAITVSGGSTYYADSVKGRFTISRDNAKNTVYLQMNSLKPEDTAVYYCAARAGWPLYQYYYWGQGTQVTVSS” the “polyreactivity (PSR sort gate)” value was “high polyreactivity”.
In the case of “QVQLVESGGGLVQAGGSLRLSCAASGSIFKSNAMGWYRQAPGKERELVAAISNGGITNYADSVKGRFTISRDNAKNTVFLQMNSLKPEDTAVYYCATSDVREIWVDYWGQGTQVTVSS”, the “polyreactivity (PSR sort gate)” value is reported as “low polyreactivity”.
With “QVQLVESGGGLVQAGGSLRLSCAASGSIFGDNAMGWYRQAPGKERELVAAITSSGGSTYYADSVKGRFTISRDNAKNTVYLQMNSLKPEDTAVYYCNADFGYGWYLRYDYWGQGTQVTVSS” the “polyreactivity (PSR sort gate)” value was “high polyreactivity”.
With “QVQLVESVGGLVQAGGSLRLSCGASGSIFVANAMGWYIQAPGKEREFVAAITGSGGSTYYADSVKGRFTISRDNAKNTVYLQMNSLKPEDTAVYYCTGDYTVKFGYWGQGTQVTVSS” the “polyreactivity (PSR sort gate)” value was “low polyreactivity”.
